This note sets out measurements from US20190077844A1 (published 2019).

The target of assay [1] is T1, Human glypican-3 on cells (Huh7, Hep3B, H446, HepG2; Hep3B xenograft tissue) (UniProt P51654 25-554). As to the kind of experiment: flow cytometry; H446 cells.
The target in assay [2] is T1, Human glypican-3 on cells (Huh7, Hep3B, …). As to the kind of experiment: flow cytometry; Hep3B cells. On the technique in general: In flow cytometry, cells or beads pass a laser one at a time.

T1 sequence (P51654 25-554): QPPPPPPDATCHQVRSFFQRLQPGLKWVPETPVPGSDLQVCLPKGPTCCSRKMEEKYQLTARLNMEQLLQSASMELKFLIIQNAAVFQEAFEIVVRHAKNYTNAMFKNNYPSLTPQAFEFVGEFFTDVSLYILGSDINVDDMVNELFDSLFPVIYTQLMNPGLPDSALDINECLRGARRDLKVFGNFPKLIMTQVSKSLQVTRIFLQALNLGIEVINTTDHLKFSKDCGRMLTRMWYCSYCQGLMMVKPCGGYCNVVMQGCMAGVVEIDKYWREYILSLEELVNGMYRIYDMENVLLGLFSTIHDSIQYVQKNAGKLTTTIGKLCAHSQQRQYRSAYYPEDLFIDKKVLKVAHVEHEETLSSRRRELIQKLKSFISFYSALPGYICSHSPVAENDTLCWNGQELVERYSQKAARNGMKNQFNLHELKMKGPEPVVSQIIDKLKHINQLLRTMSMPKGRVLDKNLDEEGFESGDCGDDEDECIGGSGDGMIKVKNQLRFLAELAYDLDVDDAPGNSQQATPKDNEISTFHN

B1: ADX_6912_G02 tubulysin analog drug conjugate DAR2 (designed binder)
chain: MGVSDVPRDLEVVAATPTSLLISWSDDYHAHRYYRITYGETGGNSPVQEFTVPGEHVTATISGLKPGVDYTITVYAVTYDGEKAATDWSISINYRTPCPPPPPCHHHHHH
modifications: tubulysin analog-linker (formula IV) on each of the two cysteines of the C-terminal PCPPPPPC
Broadly, the EC50 is the midpoint of the concentration-response curve. Regarding B1, the results for the EC50 in assay [1] and in assay [2] were 0.573 nM and 0.537 nM, respectively.

B2: ADX_6077_F02 tubulysin analog drug conjugate DAR1 (designed binder)
chain: MGVSDVPRDLEVVAATPTSLLISWSDDYHAHRYYRITYGETGGNSPVQEFTVPGEHVTATISGLKPGVDYTITVYAVTYDGEKAATDWSISINYRTPCHHHHHH
modifications: tubulysin analog-linker (formula IV) on the cysteine of the C-terminal PC via maleimide
For B2, the EC50 came out at 0.386 nM in assay [1] and 0.664 nM in assay [2].
